Test results from patent US20240409619A1 (WISTAR INSTITUTE OF ANATOMY AND BIOLOGY, published 2024).

Target: SARS-COV-2 spike protein, isolate USA-WA1/2020, on pseudotyped virus (SARS-COV-2, UniProt P0DTC2 14-1273)
Experiment: cell-based or functional assay

B1: DMAb 2381_FcWT (antibody, V domains shown)
VH: QMQLVQSGPEVKKPGTSVKVSCKASGFTFTSSAVQWVRQARGQRLEWIGWIAVGSGNTNYAQKFQERVSITRDMSTSTAYMELSSLRSEDTAVYYCAAPYCSRTSCHDAFDIWGQGTKVTVSS
VL: EVVLTQSPGTLSLSPGERATLSCRASQSVSSSYLAWYQQKPGQAPRLLIYGASSRATGIPDRFSGSGSGTDFTLTISRLEPEDFAVYHCQHFGSSSQWTFGQGTKVEIKR
neutralization potency (IC50) of serum against pseudotyped virus: < 5 ng/mL
